Test results: publication PMC9529537 (The Innovation, 2022)

B1: YD73 human monoclonal antibody, full-length IgG1 (antibody, V domains shown)
VH: QVQLVQSGAEVKKPGASVKVSCKASGYTFIAYGISWVRQAPGQGLEWMGWISAHNGNTNYAQKFQGRVTVTTDTTTRTAFMELRNLRSDDTAVYYCARAPWEYNYRSSGYYDSPYWGQGTLVTVSS
VL: EIVLTQSPGTLSLSPGERATLSCRASQSVVSTYLAWYQQKPGQAPRLLIYDTSTRATGIPDRFSGSGSGTDFTLTISRLEPEDFAVYYCQHYDSSPPWTFGQGTKVEIK
B2: YD6 human monoclonal antibody, full-length IgG1 (antibody, V domains shown)
VH: EVQLVESGGGLVKPGGSLRLSCAASGFIFSDYYMMWIRQAPGKGLEWISYISSSGSQIYYTESVKGRFTISRDNGKNLLYLQMNSLRGEDTALYYCATETGWRIDTWGQGTLVTVSS
VL: QAVLTQPASVSGSPGQSITISCTGTGSNIETYNLVSWYQRHPGKAPKLILYEVSERPSGVSNRFSGSKSGNTASLTISGLQAEDEADYFCCSYADTNIFWVFGGGTHLTVL

Biological target: E protein on YFV virions (Yellow fever virus, strain of the …)
Assay: flow cytometry on cells

Binder	binding result
B1	binds
B2	binds
